Here are results for 11 molecules from patent publication US20220204613A1 (D 10 THERAPEUTICS, published 2022).

Residue numbers refer to the chain shown, from its start. Numbers in names are those of the source.

Test [1] deals with T1, human CD47 protein (human, UniProt Q08722 19-139, limits assumed).
T1 construct: also called human CD47 antigen
In words: SPR Biacore, supernatant ranking run, human CD47 analyte 5 nM.

Test [2] has as its target T1, human CD47 protein. In words: SPR (Biacore) affinity ranking, ligand captured through Fc, human CD47 as analyte, 25 °C, 1:1 Binding model; fit of a flat sensorgram.
For test [3], the target named is T1, human CD47 protein. In words: ELISA on human CD47 protein, antibody 6.17E-02 ug/ml.
In test [4] the target is T1, human CD47 protein. The experiment in a line: ELISA on human CD47 protein, antibody 1.67E+00 ug/ml. Background: An ELISA detects its analyte on a solid surface through an enzyme-linked reagent.
The target in test [5] is T1, human CD47 protein. The experiment in a line: ELISA on human CD47 protein, antibody 1.85E-01 ug/ml.
For test [6], the target named is T1, human CD47 protein. The experiment in a line: ELISA on human CD47 protein, antibody 7.62E-04 ug/ml.
For test [7], the target named is T1, human CD47 protein. In words: ELISA on human CD47 protein, antibody 2.06E-02 ug/ml.
Test [8] addresses T1, human CD47 protein. The experiment in a line: ELISA on human CD47 protein, antibody 45 ug/ml.
The target in test [9] is T1, human CD47 protein. In words: ELISA on human CD47 protein, OD450nm against log Ab conc; EC50 row of the table drawn under the plot; fit of the flat control curve.
Test [10] deals with T1, human CD47 protein. The experiment in a line: ELISA on human CD47 protein, antibody 15 ug/ml.
For test [11], the target named is T1, human CD47 protein. The experiment in a line: ELISA on human CD47 protein, antibody 5.56E-01 ug/ml.
In test [12] the target is T1, human CD47 protein. In words: ELISA on human CD47 protein, antibody 2.29E-03 ug/ml.
In test [13] the target is T1, human CD47 protein. The experiment in a line: ELISA on human CD47 protein, antibody 6.86E-03 ug/ml.
Test [14] has as its target T1, human CD47 protein. In words: ELISA on human CD47 protein, antibody 5.00E+00 ug/ml.
For test [15], the target named is T2, extracellular domain of human CD47 (human, UniProt Q08722 19-139).
T2 construct: also called immunogen
In words: hybridoma screening ELISA on the immunogen. The protocol: Balb/c mice (4-6 mice per group) were immunized with the extracellular domain of human CD47 and immune adjuvant. Immune boosts were performed 3-5 times. Serum collection and titer evaluation by ELISA against target immunogen were performed. Spleens were extracted surgically from the highest titer mouse or mice. Mouse spleen cells were fused with rat myeloma cells facilitated by PEG. Fused cells were seeded into 96-well plates in the presence of HAT Fusion medium. Three consecutive rounds of clone testing were performed by ELISA using the immunogen for positive screening to identify and validate the positive hybridoma clones. Hybridoma cell lines producing the most suitable antibodies were subcloned and expanded for monoclonal antibody production and cell storage.

The target of test [16] is T1, human CD47 protein. In words: SPR Biacore, purified IgG Fc-captured, human CD47 analyte 0.3125-10 nM. The text has this:
Affinity measurement of purified humanized IgGs. The affinity of purified antibody binding to human CD47 was individually determined using a Surface Plasmon Resonance (SPR) biosensor, Biacore® T200/8K (GE Healthcare). Antibodies were captured on the sensor chip through Fc capture method. Human CD47 protein was used as the analyte. The data of dissociation (kd) and association (ka) rate constants were obtained using Biacore T200/8K evaluation software. The equilibrium dissociation constants (KD) were calculated from the ratio of kd over ka.
On the technique in general: SPR reads the build-up and loss of mass on a sensor chip optically.

Test [17] concerns the target T1, human CD47 protein. The experiment in a line: SPR Biacore, supernatant antibody Fc-captured, human CD47 analyte 5 nM. The protocol: Production and affinity ranking of humanized antibodies. The designed plasmids of heavy chain and light chain were sent for 3 mL transfection following GenScript's SOP. For affinity ranking, Antibodies were captured on the sensor chip through Fc capture method. Human CD47 protein was used as the analyte. The surface was regenerated before the injection of another antibody. The process was repeated until all antibodies were analyzed. The off-rates of antibodies were obtained from fitting the experimental data locally to 1:1 interaction model using the Biacore® T200/8K evaluation software. The antibodies were ranked by their dissociation rate constants (off-rates, kd).

The target of test [18] is T1, human CD47 protein. In words: ELISA on human CD47 protein, antibody 0 ug/ml (blank).

T1 sequence (Q08722 19-139 limits assumed): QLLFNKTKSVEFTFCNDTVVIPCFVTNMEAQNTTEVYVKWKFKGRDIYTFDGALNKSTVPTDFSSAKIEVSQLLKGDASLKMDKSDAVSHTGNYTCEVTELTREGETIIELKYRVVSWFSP
T2 sequence (Q08722 19-139 limits assumed): as above

In the test with human CD47 protein [1], NC displayed a Kd of 387 nM, a dissociation rate constant (koff) of 0.0179 s⁻¹ and an association rate constant (kon) of 46300 M⁻¹ s⁻¹. In the test with human CD47 protein [2], this molecule came in with an equilibrium dissociation constant (Kd) of 387 nM, a koff of 0.0179 s⁻¹ and a kon of 46300 M⁻¹ s⁻¹.

As for Isotype control (antibody), the ELISA signal with human CD47 protein [3] worked out at 0.445; in the test with human CD47 protein [4] it was 0.454; with human CD47 protein [5], 0.551; with human CD47 protein [6], 0.211; with human CD47 protein [7], 0.48; in the test with human CD47 protein [8], 0.543. Moreover, the ELISA signal with human CD47 protein [10] came to 0.49; in the test with human CD47 protein [11], 0.553; with human CD47 protein [12] it was 0.287; with human CD47 protein [13] it was 0.387; with human CD47 protein [14] it was 0.562. Further, the EC50 with human CD47 protein [9] worked out at 3.42 ng/mL.

B1: 41B1H9 (antibody, V domains shown)
VH: EVQLQQSGTELVKPGASVRLSCTASGLDIKDTYMHWLKQRPEQGLEWIGRIDPASGNAKHDPKFQGKATITSDPSSNTANLQLTSLTSEDSAVYYCASGYGHYVGAMDYWGQGTSVTVSS
VL: DIQMNQSPSSLSASLGDTITITCHASQNINVWLSWYQQKPGNIPKLLIYKASNLHTGVPSRFSGSGSGTGFTLTISSLQPEDIATYYCQQSRNYPYTFGGGTKLEIK
notes: Mouse hybridoma antibody; also called antibody 41B1H9
For the molecule B1, the binding result in test [15] is “binds”.

B2: VH1-PTM+VL1 (antibody, human IgG4 S228P, kappa, V domains shown)
VH: QVQLVQSGAEVKKPGASVKVSCKASGYTFTSSVIHWVRQAPGQGLEWMGYINPYSEGTKFNEKSKIRVTMTRDTSISTAYMELSRLRSDDTAVYYCARGLIGTRYDSWFAYWGQGTLVTVSS
VL: DIQMTQSPSSLSASVGDRVTITCRTSQDINNYLNWYQQKPGKAPKLLIYYTSRLHSGVPSRFSGSGSGTDFTFTISSLQPEDIATYYCQQGNTLPYTFGGGTKVEIKR
notes: Purified humanized IgG with PTM sites removed, hIgG4 CH (S228P) and human kappa CL; leader residues 1-19 of each entry left out; also called U0959FD090-VH1-PTM + U0959FD090-VL1
For B2, in the test with human CD47 protein [16], the affinity, expressed as Kd, was 0.872 nM; the koff was 0.0023 s⁻¹; the kon amounted to 2.64e+06 M⁻¹ s⁻¹.

B3: VH1-PTM+VL2 (antibody, human IgG4 S228P, kappa, V domains shown)
VH: B2 VH
VL: B2 VL with P44V, Y87F
notes: Purified humanized IgG with PTM sites removed, hIgG4 CH (S228P) and human kappa CL; leader residues 1-19 of each entry left out; also called U0959FD090-VH1-PTM + U0959FD090-VL2
For B3, in the test with human CD47 protein [16], binding was put at a Kd of 0.556 nM, the off-rate (koff) was 0.00193 s⁻¹ and the kon stood at 3.46e+06 M⁻¹ s⁻¹.

B4: VH1-PTM+VL3 (antibody, human IgG4 S228P, kappa, V domains shown)
VH: B2 VH
VL: B2 VL with P44V, F71Y, Y87F
notes: Purified humanized IgG with PTM sites removed, hIgG4 CH (S228P) and human kappa CL; leader residues 1-19 of each entry left out; also called U0959FD090-VH1-PTM + U0959FD090-VL3
In the test with human CD47 protein [16], B4 gave a dissociation constant (Kd) of 0.458 nM, an off-rate constant (koff) of 0.0016 s⁻¹ and a kon of 3.49e+06 M⁻¹ s⁻¹.

B5: 37H4H3 (antibody, V domains shown)
VH: EVQLQQSGPELVKPGASVKLSCKASGYTFTSSVMHWVKQKPGQGLEWLGYINPYSDGTKFNEKYKTKATLTSDKSSSTAYMELSSLTSEDSAVYYCARGLIGTRYDSWFAYWGQGTLVTVSA
VL: DIQMTQNASSLSASLGDRVTISCRTSQDINNYLNWYQQKPDGTVKLLIYYTSRLHSGVPSRFSGSGSGTDYSLSIRYLEQEDIATYFCHQGNTLPYTFGGGTKLEIK
notes: Mouse hybridoma antibody; also called antibody 37H4H3
Turning to B5, the binding result in test [15] is given as “binds”.

B6: 33H11F3 (antibody, V domains shown)
VH: EVQLQQSGPELVKPGASVKMSCKASGYTFTSYVMHWVKQKPGQGLEWMGYINPYNDGTKYNEKFKGKATLTSDKSSNTAYMEFSSLTSEDSAVYYCARIDYGTIHTSWFAYWGQGTLVTVSA
VL: B5 VL with Q6H, N7T, A8T, T25A, N30S, S74T, R76S, Y77N, H89Q, Y96W
notes: Mouse hybridoma antibody; also called antibody 33H11F3
On to B6, for which the binding result in test [15] is listed as “binds”.

B7: 38F1E12 (antibody, V domains shown)
VH: EVQLQQSGPELVQPGASVRMSCKASGYTFTSYVMHWVKQKPGQGLEWIGYINPYNDGTKYNEKFKGKATLTSDKSSSTAYMELSSLTSEDSAVYYCARGRNRYDGWFTYWGQGTLVTVSA
VL: B5 VL with N7T, A8T, S9F, T25A, N30S, S74T, R76S, Y77N, H89Q
notes: Mouse hybridoma antibody; also called antibody 38F1E12
Take B7: the binding result in [15] is “binds”.

B8: chimeric-VH+VL-1 (antibody, human IgG4, V domains shown)
VH: B5 VH with M34I, Y64C, T66I
VL: B5 VL with A8G, P40Q, S74T, Y77N, H89Q
notes: also called chimeric antibody
Turning to B8, the ELISA signal with human CD47 protein [3] was 3.19; with human CD47 protein [4], 3.32; in the test with human CD47 protein [5], 3.34; with human CD47 protein [6], 1.71; in the test with human CD47 protein [7] it was 2.9; with human CD47 protein [8] it was 3.48. Also, the ELISA signal was found to be 3.39 with human CD47 protein [10]; 3.32 with human CD47 protein [11]; 2.4 with human CD47 protein [12]; 2.64 with human CD47 protein [13]; 3.48 in the test with human CD47 protein [14]; 0.162 in the test with human CD47 protein [18]. The Kd with human CD47 protein [17] was found to be 0.34 nM; in the test with human CD47 protein [16], 0.482 nM. The off-rate constant (koff) with human CD47 protein [17] was determined as 0.00261 s⁻¹; in the test with human CD47 protein [16] it was 0.00255 s⁻¹. Further, the on-rate (kon) in the test with human CD47 protein [17] came to 7.69e+06 M⁻¹ s⁻¹; with human CD47 protein [16], 5.3e+06 M⁻¹ s⁻¹.

B9: chimeric-VH+VL2 (antibody, human IgG4, V domains shown)
VH: B5 VH with M34I, Y64C, T66I
VL: B1 VL with S91G, R92Q, N93S, Y96L, G100A, I106L
With B9, the ELISA signal with human CD47 protein [3] came out at 0.435; in the test with human CD47 protein [4], 0.663; with human CD47 protein [5] it was 0.475; in the test with human CD47 protein [6], 0.255; with human CD47 protein [7], 0.342; in the test with human CD47 protein [8], 1.95. Besides, the ELISA signal was determined as 1.39 with human CD47 protein [10]; 0.56 in the test with human CD47 protein [11]; 0.276 with human CD47 protein [12]; 0.44 with human CD47 protein [13]; 0.918 with human CD47 protein [14]; 0.251 in the test with human CD47 protein [18].

The Kd is a measure of binding affinity in units of concentration. Higher therefore signals weaker binding. What is called koff is the rate constant with which the complex falls apart. The low end stands for slow dissociation, the high end for fast dissociation. The kon is the rate constant with which the complex forms. Read a low kon as slower complex formation. As a reminder, the EC50 is the concentration at which the effect is half-maximal. Higher therefore signals a less potent agent.
